Results on two molecules are retold here after paper PMC8683085, “Serine ADP-ribosylation marks nucleosomes for ALC1-dependent chromatin remodeling” (eLife, 2021).

The target of the assay is PARP1 (Homo sapiens, UniProt P09874). Put plainly: PARP1 ADP-ribose chain elongation on mono-ADP-ribosylated peptide (RP-HPLC), with and without HPF1 titration. It is filed as biochemical. Conditions: 1 μM PARP1, 180 μM H3S10ADPr1 peptide, 2 mM NAD+, 30 °C 25 min, RP-HPLC A280, n = 3. The procedure: To analyze PARP1 and PARP2 ADPr activity on peptide substrates, 2 mM NAD^+ and 1 μM stimulating DNA were combined into the ADPr reaction buffer in the presence of 0.2, 1, or 5 μM PARP1 or PARP2, in a 25 μL reaction (2 μM PARP1/2, 2 μM DNA and 50 μL reaction volume for H2B peptides). All unmodified and mono-ADP-ribosylated substrate peptides were analyzed at a concentration of 180 μM (40 μM for H2B peptides). The reaction was incubated at 30 °C for 25 min, quenched via addition of 95 μL (70 μL in case of H2B peptide reactions) of Solvent A. It was then centrifuged at 20,000 RCF for 5 min and 100 μL of the supernatant was injected into an analytical C18 column for product analysis via RP-HPLC. An elution gradient of 0–35% Solvent B over 20 min was employed to optimize separation of the poly-ADP-ribosylated peptide products. Percent substrate turnover was calculated by integrating the peaks for the starting material and each product on the RP-HPLC A280 trace, normalizing them depending on their number of ADP-ribose moieties, and calculating ratio of total product to total peptide amounts for each reaction. All reactions were performed in triplicate and error bars represent standard deviations. Individual peaks corresponding to products with unique ADP-ribose chain lengths were collected and analyzed by ESI-MS. […]
Sequence of PARP1 (P09874 whole entry): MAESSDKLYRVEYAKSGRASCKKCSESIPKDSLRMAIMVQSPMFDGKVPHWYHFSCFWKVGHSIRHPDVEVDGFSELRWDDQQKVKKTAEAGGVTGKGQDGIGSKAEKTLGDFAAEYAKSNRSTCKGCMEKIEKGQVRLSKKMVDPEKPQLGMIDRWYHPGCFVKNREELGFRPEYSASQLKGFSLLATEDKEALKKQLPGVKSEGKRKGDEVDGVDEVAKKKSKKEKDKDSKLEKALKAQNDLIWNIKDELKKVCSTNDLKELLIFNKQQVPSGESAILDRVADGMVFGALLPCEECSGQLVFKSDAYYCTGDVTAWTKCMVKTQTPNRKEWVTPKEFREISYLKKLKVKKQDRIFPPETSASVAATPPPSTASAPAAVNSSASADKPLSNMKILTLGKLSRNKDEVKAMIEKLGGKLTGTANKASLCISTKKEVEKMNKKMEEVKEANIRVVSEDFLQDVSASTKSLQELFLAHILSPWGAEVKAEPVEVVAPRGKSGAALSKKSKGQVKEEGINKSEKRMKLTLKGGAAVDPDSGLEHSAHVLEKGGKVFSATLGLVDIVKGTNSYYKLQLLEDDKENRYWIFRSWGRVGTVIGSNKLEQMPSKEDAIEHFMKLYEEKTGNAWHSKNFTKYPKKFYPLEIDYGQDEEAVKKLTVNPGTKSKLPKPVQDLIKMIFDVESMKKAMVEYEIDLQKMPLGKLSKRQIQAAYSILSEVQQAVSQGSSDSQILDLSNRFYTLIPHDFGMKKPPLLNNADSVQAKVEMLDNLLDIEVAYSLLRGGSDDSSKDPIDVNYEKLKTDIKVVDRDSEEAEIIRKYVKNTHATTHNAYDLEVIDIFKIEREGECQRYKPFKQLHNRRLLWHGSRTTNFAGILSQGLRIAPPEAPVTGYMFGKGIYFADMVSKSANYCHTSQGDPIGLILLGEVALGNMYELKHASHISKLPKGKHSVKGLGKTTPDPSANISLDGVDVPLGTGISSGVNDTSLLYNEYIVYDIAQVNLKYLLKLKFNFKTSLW

B1: HPF1: recombinant FLAG-HPF1, amino acids 27–346, PARP1/2-interacting protein (protein)
chain: KFCEADVSSDLRKEVENHYKLSLPEDFYHFWKFCEELDPEKPSDSLSASLGLQLVGPYDILAGKHKTKKKSTGLNFNLHWRFYYDPPEFQTIIIGDNKTQYHMGYFRDSPDEFPVYVGINEAKKNCIIVPNGDNVFAAVKLFLTKKLREITDKKKINLLKNIDEKLTEAARELGYSLEQRTVKMKQRDKKVVTKTFHGAGLVVPVDKNDVGYRELPETDADLKRICKTIVEAASDEERLKAFAPIQEMMTFVQFANDECDYGMGLELGMDLFCYGSHYFHKVAGQLLPLAYNLLKRNLFAEIIEEHLANRSQENIDQLAA
modifications: left off: 6xHis, N-terminal, cleaved | SUMO, N-terminal, cleaved | FLAG, N-terminal, kept
With B1, under “read-out: HPF1 concentration giving 50% inhibition of PARP1-catalyzed ADP-ribose polymerization”, the IC50 is approximately 14 µM.

B2: HPF1 mutant (D283A): binding-deficient HPF1 mutant (protein)
chain: KFCEADVSSDLRKEVENHYKLSLPEDFYHFWKFCEELDPEKPSDSLSASLGLQLVGPYDILAGKHKTKKKSTGLNFNLHWRFYYDPPEFQTIIIGDNKTQYHMGYFRDSPDEFPVYVGINEAKKNCIIVPNGDNVFAAVKLFLTKKLREITDKKKINLLKNIDEKLTEAARELGYSLEQRTVKMKQRDKKVVTKTFHGAGLVVPVDKNDVGYRELPETDADLKRICKTIVEAASDEERLKAFAPIQEMMTFVQFANAECDYGMGLELGMDLFCYGSHYFHKVAGQLLPLAYNLLKRNLFAEIIEEHLANRSQENIDQLAA
modifications: left off: 6xHis, N-terminal, cleaved | SUMO, N-terminal, cleaved | FLAG, N-terminal, kept
Take B2: the “HPF1 concentration giving 50% inhibition of PARP1-catalyzed ADP-ribose polymerization” value is “unable to appreciably inhibit”.
